# What was measured:
# [1] = target: tag-free recombinant native peroxiredoxin Q (PrxQ) from Corynebacterium glutamicum (Corynebacterium glutamicum)
# [2] = target: PrxQ:C54S (Corynebacterium glutamicum); test: mixed-disulfide heterodimer formation on non-reducing SDS-PAGE; 20 μM PrxQ variant and 15 μM Trx (WT or variant) in 30 mM Tris-HCl pH 8.0, 1 mM EDTA, room temperature 15 min, then 50 μM H2O2 for 30 min; 15% non-reducing SDS-PAGE
stoichiometry N [2],Substance,further results
–,Trx2 WT (wild type) (natural protein),"Km for Trx2 of the peroxidase activity of PrxQ with CHP (NADPH-coupled assay, Trx2/TrxR system, 0-120 μM Trx, 1 μM PrxQ) [1]: 5.43 µM"
1,His6-Trx1:C35S (natural protein),–
–,Trx1 WT (wild type) (natural protein),"Km for Trx1 of the peroxidase activity of PrxQ with CHP (NADPH-coupled assay, Trx1/TrxR system, 0-120 μM Trx, 1 μM PrxQ) [1]: 4.41 µM"
1,His6-Trx2:C33S (natural protein),–
